From publication PMC5772516
Values joined by “and” are separate entries in the source; they are usually repeats but may differ in a detail not shown here. Identical values can stand only once.

What was measured:
[1] = target: vascular endothelial growth factor (VEGF165) (human); experiment: solid-state nanopore translocation; 20 nM VEGF, pH 7.6, V = +500 mV, ~5.5 nm pore in 12 nm SiNx; 1 M KCl, 50 mM phosphate buffer, 5 mM EDTA, 22.0 ± 0.5 °C; then 0.5 mM TCEP added in the same pore (events converge into one lower-amplitude group, 92%)
[2] = target: vascular endothelial growth factor (VEGF165) (human); experiment: solid-state nanopore translocation; 0.2 nM to 100 nM VEGF, pH 7.2, V = −500 mV, ~5–6.5 nm pore; 1 M KCl, 50 mM phosphate buffer, 5 mM EDTA, 22.0 ± 0.5 °C; 0.5 mM TCEP added afterwards shifts the events to single-level group A (71%)
[3] = target: vascular endothelial growth factor (VEGF165) (human); experiment: SDS-PAGE; VEGF solution before reduction (non-reducing)

stoichiometry N [1]: 2 and 3
percent of translocation events in group B (dimer) at 20 nM [2]: 12%
percent of translocation events in level B and B/A (dimeric state) at 0.2 nM [2]: 6%
percent of translocation events in level B and B/A (dimeric state) at 100 nM [2]: 59%
percent of translocation events with a B to A multi-level pattern at 20 nM [2]: 28%
stoichiometry N [2]: 2
stoichiometry N [3]: 2 and 3
Substance: vascular endothelial growth factor (VEGF165) (natural protein)
